Data from article PMC9410871, “Structural basis of DNA packaging by a ring-type ATPase from an archetypal viral system” (Nucleic Acids Research, 2022).

B1: HK97 portal (portal complex of the procapsid) (natural protein, bacteriophage HK97, UniProt P49859 1-424, looked up)
chain: MEEPKYTIDLRTNNGWWARLKSWFVGGRLVTPNQGSQTGPVSAHGYLGDSSINDERILQISTVWRCVSLISTLTACLPLDVFETDQNDNRKKVDLSNPLARLLRYSPNQYMTAQEFREAMTMQLCFYGNAYALVDRNSAGDVISLLPLQSANMDVKLVGKKVVYRYQRDSEYADFSQKEIFHLKGFGFTGLVGLSPIAFACKSAGVAVAMEDQQRDFFANGAKSPQILSTGEKVLTEQQRSQVEENFKEIAGGPVKKRLWILEAGFSTSAIGVTPQDAEMMASRKFQVSELARFFGVPPHLVGDVEKSTSWGSGIEQQNLGFLQYTLQPYISRWENSIQRWLIPSKDVGRLHAEHNLDGLLRGDSASRAAFMKAMGESGLRTINEMRRTDNMPPLPGGDVAMRQAQYVPITDLGTNKEPRNNGA
notes: Portal protein of bacteriophage HK97, within the procapsid; Seen only as part of the procapsid m4; source: E. coli 594 infected with HK97 amber mutant amC2; within purified procapsids; copies: 12

What was measured:
[1] = target: HK97 small terminase (TerS) protein GP1 (bacteriophage HK97); test: SEC-MALS; TerS in solution; conditions not told in the main text
[2] = target: HK97 small terminase (TerS) protein GP1 (bacteriophage HK97); test: native MS; TerS buffer-exchanged into 200 mM ammonium acetate, pH 7.5; modified Q-Exactive Orbitrap, positive ion mode, static nanospray
[3] = target: HK97 small terminase (TerS) protein GP1 (bacteriophage HK97); test: crystal structure; TerS 22 mg/mL in 300 mM potassium glutamate, 20 mM HEPES pH 7.0; reservoir 9% PEG 3350, 0.1 M succinic acid pH 7.0; three subunits in the asymmetric unit around a crystallographic 3-fold axis
[4] = target: the molecule itself; test: cryo-EM structure; packaging reaction with 125 nM prohead, 125 nM ScaI-linearized pUC18 DNA, 1 uM TerL, 2 uM TerS, vitrified about 30 s after 1 mM ATP; 5-fold symmetry applied to resolve TerL, 6-fold to resolve the portal

| Molecule | stoichiometry N [1] | stoichiometry N [2] | stoichiometry N [3] | stoichiometry N [4] |
| --- | --- | --- | --- | --- |
| HK97 small terminase (TerS) protein GP1 (natural protein) | 9 | 9 | 9 | – |
| B1 | – | – | – | 12 |
